Measured values published in patent US10562947B2, “Compositions and methods for preventing or treating diseases, conditions or processes characterized by aberrant fibroblast proliferation and extracellular matrix deposition” (MOERAE MATRIX, INC., priority 2011, dated 2020).

Experiments:
Assay in all cases: Kinase Profiling Assay
Assay type in all cases: biochemical
Settings in all cases: 100 μM peptide
Tec(h) activated = target: T1, Tec(h) activated (Homo sapiens, UniProt P42680)
T1 sequence (P42680 1-631): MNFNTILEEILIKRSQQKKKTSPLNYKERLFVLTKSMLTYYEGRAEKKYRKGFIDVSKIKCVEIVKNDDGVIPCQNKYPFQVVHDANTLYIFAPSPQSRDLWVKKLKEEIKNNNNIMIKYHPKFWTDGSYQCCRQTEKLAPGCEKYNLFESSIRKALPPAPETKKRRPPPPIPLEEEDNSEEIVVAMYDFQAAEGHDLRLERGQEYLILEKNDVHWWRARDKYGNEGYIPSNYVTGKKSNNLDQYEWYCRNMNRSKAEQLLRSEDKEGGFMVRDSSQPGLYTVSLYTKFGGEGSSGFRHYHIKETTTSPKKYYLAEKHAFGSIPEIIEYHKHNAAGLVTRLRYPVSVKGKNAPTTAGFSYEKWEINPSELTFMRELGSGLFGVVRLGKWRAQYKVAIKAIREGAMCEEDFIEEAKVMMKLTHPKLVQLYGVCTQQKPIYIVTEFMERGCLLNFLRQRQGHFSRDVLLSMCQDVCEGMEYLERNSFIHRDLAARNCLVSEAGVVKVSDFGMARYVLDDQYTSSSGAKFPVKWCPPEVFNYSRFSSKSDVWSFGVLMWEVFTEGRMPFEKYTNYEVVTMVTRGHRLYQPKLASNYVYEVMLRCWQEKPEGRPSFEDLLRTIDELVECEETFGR
Outline: (§1)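 Duplicate activity readings per kinase; peptide inhibitors of MK2 profiled against 266 human kinases for selectivity.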

MEK1(h) = MEK1(h) (Homo sapiens, UniProt Q02750)
Outline: as §1

STK33(h) = STK33(h) (Homo sapiens, UniProt Q9BYT3)
Outline: as §1

Tie2(Y897S)(h) = Tie2(Y897S)(h) (Homo sapiens, UniProt Q02763, Y897S)
Outline: as §1

Ret(h) = target: T2, Ret(h) (Homo sapiens, UniProt P07949)
T2 construct: purchased Millipore (IC50 Profiler Express service)
Outline: as §1

CHK2(R145W)(h) = CHK2(R145W)(h) (Homo sapiens, UniProt O96017, R145W)
Outline: as §1

PKG1α(h) = target: T3, PKG1α(h) (Homo sapiens, UniProt Q13976)
T3 construct: purchased Millipore (IC50 Profiler Express service)
T3 sequence (Q13976 1-671): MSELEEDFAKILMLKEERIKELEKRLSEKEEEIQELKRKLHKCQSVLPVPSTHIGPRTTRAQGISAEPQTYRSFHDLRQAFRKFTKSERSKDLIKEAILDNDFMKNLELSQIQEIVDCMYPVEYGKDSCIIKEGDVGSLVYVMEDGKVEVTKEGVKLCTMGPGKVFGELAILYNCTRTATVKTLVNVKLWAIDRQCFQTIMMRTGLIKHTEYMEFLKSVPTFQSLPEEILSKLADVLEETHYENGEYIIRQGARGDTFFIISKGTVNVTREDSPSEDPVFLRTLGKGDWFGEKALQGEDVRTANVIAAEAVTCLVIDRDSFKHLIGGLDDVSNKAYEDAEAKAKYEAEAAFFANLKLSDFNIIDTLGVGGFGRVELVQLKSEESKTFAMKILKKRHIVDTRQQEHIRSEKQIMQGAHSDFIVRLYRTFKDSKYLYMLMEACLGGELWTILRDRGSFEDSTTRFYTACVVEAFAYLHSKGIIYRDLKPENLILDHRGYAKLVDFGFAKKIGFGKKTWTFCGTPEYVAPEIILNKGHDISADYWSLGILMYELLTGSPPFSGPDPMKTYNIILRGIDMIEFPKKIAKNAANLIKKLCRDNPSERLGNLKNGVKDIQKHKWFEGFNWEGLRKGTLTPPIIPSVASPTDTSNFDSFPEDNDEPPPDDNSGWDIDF
Outline: as §1

CDK2/cyclinA(h) = CDK2/cyclinA(h) (Homo sapiens, UniProt P24941)
Outline: as §1

DDR2(h) = target: T4, DDR2(h) (Homo sapiens, UniProt Q16832)
T4 sequence (Q16832 22-855): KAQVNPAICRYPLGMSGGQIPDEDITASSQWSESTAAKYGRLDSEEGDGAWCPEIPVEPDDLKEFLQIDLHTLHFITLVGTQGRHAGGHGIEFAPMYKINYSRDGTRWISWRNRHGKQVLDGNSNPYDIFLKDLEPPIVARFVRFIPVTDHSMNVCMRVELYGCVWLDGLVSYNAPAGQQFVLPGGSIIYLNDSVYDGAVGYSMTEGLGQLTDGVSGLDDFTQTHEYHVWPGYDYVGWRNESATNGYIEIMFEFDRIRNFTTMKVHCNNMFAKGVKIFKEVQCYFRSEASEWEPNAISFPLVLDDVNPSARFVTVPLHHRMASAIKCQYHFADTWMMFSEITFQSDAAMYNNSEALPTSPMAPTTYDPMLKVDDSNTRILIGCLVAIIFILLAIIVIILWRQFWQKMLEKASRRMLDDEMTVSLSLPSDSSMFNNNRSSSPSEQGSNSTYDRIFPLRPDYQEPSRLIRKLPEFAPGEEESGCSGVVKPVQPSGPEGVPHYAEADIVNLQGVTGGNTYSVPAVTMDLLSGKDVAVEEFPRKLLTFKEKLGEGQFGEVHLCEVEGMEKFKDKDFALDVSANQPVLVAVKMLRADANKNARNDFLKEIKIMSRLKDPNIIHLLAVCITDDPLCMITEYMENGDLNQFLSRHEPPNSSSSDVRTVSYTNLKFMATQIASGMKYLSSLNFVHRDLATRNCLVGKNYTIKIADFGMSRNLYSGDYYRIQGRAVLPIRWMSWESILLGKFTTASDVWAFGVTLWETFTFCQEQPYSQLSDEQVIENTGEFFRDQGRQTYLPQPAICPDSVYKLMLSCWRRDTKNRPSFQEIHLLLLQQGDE
Outline: as §1

PAK5(h) = PAK5(h) (Homo sapiens, UniProt Q9P286)
Outline: as §1

mTOR/FKBP12(h) = mTOR/FKBP12(h) (Homo sapiens, UniProt P42345)
Outline: as §1

ACK1(h) = ACK1(h) (Homo sapiens, UniProt Q07912)
Outline: as §1

Sequence of Tie2(Y897S)(h) (Q02763 23-1124 Y897S): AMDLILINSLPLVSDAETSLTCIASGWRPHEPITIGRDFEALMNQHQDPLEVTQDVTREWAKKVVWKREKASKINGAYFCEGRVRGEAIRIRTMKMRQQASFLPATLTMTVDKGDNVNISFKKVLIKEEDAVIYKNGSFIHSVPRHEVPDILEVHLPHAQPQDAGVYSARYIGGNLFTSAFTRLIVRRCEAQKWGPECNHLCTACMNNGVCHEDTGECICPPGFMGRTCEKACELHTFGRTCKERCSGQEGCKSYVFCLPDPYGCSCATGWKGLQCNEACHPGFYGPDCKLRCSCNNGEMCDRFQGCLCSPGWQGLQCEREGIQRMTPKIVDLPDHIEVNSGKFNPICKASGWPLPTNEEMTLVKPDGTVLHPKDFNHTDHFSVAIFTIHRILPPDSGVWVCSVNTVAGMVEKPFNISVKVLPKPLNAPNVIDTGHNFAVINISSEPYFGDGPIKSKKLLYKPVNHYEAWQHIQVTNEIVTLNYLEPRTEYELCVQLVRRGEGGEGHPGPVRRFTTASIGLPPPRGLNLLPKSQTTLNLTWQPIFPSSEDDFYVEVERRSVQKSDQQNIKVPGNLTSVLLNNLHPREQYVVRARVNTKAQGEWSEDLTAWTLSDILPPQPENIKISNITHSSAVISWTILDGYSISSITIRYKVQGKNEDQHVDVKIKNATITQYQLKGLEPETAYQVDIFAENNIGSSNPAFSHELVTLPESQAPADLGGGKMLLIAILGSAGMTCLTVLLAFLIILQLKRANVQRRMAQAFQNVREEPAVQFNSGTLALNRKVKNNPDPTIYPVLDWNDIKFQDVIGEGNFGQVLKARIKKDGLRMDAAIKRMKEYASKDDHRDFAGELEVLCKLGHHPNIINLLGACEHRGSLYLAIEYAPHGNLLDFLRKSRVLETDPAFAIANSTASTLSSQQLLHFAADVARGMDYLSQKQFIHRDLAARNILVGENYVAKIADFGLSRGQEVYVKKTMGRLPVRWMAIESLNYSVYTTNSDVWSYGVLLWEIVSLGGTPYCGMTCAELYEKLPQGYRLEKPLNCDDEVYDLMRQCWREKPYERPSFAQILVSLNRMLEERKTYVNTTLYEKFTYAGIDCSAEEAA
Sequence of ACK1(h) (Q07912 whole entry): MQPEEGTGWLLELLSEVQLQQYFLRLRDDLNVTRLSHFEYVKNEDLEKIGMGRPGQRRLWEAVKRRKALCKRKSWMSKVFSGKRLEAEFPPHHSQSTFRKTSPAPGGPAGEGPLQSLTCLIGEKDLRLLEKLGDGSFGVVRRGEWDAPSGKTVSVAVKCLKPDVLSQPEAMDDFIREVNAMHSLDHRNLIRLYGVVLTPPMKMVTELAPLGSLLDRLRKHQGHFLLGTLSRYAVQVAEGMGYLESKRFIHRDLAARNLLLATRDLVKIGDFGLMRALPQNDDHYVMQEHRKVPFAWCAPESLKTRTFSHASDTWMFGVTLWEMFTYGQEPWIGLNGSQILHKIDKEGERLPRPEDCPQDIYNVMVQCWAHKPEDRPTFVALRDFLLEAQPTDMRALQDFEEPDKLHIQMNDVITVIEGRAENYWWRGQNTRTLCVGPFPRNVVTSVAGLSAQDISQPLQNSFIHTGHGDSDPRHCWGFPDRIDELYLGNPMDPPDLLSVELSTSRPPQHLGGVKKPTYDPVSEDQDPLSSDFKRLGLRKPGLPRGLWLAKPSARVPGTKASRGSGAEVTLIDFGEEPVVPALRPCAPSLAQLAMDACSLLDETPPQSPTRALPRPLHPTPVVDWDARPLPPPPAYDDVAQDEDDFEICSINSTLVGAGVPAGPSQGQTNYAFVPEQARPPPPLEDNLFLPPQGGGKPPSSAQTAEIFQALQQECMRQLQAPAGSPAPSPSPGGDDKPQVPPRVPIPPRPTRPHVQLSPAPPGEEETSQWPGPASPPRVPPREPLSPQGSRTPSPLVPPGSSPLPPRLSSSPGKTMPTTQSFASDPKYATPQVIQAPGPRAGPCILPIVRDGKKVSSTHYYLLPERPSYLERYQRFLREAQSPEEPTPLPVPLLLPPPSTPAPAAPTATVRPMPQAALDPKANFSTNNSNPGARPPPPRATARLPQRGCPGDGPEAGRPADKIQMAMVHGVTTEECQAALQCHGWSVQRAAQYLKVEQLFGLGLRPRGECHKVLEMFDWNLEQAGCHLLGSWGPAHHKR
Sequence of STK33(h) (Q9BYT3 whole entry): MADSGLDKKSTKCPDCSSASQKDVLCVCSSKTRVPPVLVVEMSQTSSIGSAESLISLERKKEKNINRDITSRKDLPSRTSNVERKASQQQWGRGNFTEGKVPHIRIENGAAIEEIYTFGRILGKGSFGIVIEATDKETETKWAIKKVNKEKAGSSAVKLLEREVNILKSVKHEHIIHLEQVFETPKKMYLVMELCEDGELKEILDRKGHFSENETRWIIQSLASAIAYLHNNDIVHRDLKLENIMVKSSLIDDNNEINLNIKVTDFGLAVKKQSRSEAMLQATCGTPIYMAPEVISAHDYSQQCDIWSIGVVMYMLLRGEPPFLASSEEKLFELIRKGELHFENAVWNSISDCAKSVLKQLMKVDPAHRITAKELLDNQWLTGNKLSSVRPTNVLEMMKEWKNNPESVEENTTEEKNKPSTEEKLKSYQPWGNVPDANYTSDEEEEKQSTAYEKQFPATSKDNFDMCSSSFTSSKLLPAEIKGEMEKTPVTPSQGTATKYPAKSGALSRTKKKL
Sequence of mTOR/FKBP12(h) (P42345 1362-2549 limits assumed): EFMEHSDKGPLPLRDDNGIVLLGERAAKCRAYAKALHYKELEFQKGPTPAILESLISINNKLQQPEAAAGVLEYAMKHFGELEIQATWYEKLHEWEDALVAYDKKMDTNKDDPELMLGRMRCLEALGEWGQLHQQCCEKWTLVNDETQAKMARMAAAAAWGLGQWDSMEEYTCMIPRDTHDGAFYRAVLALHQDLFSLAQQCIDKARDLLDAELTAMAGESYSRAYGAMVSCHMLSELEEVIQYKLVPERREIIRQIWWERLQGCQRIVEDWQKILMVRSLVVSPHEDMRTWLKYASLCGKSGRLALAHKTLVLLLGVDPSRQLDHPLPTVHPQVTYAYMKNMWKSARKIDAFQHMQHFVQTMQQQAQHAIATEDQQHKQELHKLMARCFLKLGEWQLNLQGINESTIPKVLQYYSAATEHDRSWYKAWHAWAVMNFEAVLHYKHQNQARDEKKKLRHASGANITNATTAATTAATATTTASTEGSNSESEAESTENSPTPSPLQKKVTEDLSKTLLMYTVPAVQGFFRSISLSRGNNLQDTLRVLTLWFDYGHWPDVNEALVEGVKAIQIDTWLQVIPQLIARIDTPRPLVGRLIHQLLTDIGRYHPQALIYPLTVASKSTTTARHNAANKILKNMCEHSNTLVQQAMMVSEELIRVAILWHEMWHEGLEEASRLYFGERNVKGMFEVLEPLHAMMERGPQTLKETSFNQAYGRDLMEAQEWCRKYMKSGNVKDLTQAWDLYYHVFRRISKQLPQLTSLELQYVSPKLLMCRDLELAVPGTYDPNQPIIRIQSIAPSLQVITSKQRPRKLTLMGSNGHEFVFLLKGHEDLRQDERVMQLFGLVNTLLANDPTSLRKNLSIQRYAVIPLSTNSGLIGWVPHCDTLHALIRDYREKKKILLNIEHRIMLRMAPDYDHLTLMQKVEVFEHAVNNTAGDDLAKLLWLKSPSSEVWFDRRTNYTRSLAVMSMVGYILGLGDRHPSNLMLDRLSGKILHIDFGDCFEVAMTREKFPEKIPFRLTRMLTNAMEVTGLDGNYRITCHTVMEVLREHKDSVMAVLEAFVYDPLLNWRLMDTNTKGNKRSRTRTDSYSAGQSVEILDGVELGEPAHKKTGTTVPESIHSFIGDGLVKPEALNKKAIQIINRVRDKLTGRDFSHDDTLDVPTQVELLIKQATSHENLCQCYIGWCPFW
Sequence of PAK5(h) (Q9P286 whole entry): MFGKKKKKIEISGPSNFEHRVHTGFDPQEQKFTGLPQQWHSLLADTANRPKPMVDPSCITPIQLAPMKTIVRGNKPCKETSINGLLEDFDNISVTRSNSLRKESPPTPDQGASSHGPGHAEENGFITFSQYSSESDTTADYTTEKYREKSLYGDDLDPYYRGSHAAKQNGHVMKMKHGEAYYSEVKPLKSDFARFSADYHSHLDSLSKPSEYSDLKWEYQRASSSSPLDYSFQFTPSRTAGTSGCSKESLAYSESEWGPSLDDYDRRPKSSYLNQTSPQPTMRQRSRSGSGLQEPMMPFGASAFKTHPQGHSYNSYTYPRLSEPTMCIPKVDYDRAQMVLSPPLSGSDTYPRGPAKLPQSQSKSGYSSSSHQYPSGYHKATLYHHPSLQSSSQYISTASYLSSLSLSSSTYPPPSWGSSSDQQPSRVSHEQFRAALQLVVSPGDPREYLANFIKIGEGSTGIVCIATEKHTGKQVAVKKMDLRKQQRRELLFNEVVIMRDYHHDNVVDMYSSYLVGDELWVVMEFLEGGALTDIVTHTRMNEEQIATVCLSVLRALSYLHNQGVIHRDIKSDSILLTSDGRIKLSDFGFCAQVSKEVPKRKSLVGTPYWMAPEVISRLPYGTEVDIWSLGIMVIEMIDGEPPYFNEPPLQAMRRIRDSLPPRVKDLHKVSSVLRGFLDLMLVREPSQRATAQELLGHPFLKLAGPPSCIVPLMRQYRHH
Sequence of CHK2(R145W)(h) (O96017 whole entry R145W): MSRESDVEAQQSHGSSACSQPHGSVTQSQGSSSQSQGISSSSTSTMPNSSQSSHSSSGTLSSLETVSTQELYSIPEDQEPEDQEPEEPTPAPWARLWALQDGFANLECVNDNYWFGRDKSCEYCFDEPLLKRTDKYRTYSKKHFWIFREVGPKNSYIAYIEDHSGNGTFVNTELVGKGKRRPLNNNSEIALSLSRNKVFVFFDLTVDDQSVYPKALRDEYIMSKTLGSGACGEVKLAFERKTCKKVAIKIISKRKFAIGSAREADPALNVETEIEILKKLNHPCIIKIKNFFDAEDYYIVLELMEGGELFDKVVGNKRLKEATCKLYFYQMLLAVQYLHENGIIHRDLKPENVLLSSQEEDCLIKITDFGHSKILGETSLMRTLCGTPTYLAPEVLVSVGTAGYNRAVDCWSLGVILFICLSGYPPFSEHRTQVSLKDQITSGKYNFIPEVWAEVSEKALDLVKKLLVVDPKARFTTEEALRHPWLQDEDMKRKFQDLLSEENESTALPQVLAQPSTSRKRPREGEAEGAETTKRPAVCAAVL

| Sequence | Tec(h) activated % activity (Tec(h) activated) [%] | MEK1(h) % activity (MEK1(h)) [%] | STK33(h) % activity (STK33(h)) [%] | Tie2(Y897S)(h) % activity (Tie2(Y897S)(h)) [%] | Ret(h) % activity (Ret(h)) [%] | CHK2(R145W)(h) % activity (CHK2(R145W)(h)) [%] | PKG1α(h) % activity (PKG1α(h)) [%] | CDK2/cyclinA(h) % activity (CDK2/cyclinA(h)) [%] | DDR2(h) % activity (DDR2(h)) [%] | PAK5(h) % activity (PAK5(h)) [%] | mTOR/FKBP12(h) % activity (mTOR/FKBP12(h)) [%] | ACK1(h) % activity (ACK1(h)) [%] |
| --- | --- | --- | --- | --- | --- | --- | --- | --- | --- | --- | --- | --- |
| FAKLAARLYRKALARQLGVAA [MMI-0300] | 56 | 77 | 45 | 83 | 140 | 33 | 64 | 86 | 94 | 110 | 145 |  |
| KAFAKLAARLYRKALARQLGVAA [MMI-0400] | 29 | 77 | 52 | 87 | 145 | 31 | 58 | 92 | 95 |  | 125 | 95 |
| YARAAARQARAKALNRQLGVA (Mammalian) [MMI-0200] | 77 |  | 98 | 85 | 96 | 81 | 70 |  |  | 100 | 118 | 97 |
| HRRIKAWLKKIKALARQLGVAA (Mammalian) [MMI-0500] | 33 | 21 | 16 | 80 | 174 | 3 | 25 | 87 | 79 | 125 | 140 | 64 |
